Data published in publication PMC3217979, “Thermostable Hexameric Form of Eis (Rv2416c) Protein of M. tuberculosis Plays an Important Role for Enhanced Intracellular Survival within Macrophages” (PLoS ONE, 2011).

Columns and labels:
[1] = biological target: the molecule itself; test: SEC; […], pH 8.0, 25°C; […]
[2] = biological target: the molecule itself; test: SDS-PAGE of unboiled and boiled samples; 10 µg Eis in 1% SDS, 0.125 M Tris pH 6.8, boiled or unboiled; 10% acrylamide gel, 0.1% SDS in Tris/Glycine pH 8.0; Coomassie stain

B1: Eis protein (Rv2416c) of M. tuberculosis (enzyme)
chain: MTVTLCSPTEDDWPGMFLLAAASFTDFIGPESATAWRTLVPTDGAVVVRDGAGPGSEVVGMALYMDLRLTVPGEVVLPTAGLSFVAVAPTHRRRGLLRAMCAELHRRIADSGYPVAALHASEGGIYGRFGYGPATTLHELTVDRRFARFHADAPGGGLGGSSVRLVRPTEHRGEFEAIYERWRQQVPGGLLRPQVLWDELLAECKAAPGGDRESFALLHPDGYALYRVDRTDLKLARVSELRAVTADAHCALWRALIGLDSMERISIITHPQDPLPHLLTDTRLARTTWRQDGLWLRIMNVPAALEARGYAHEVGEFSTVLEVSDGGRFALKIGDGRARCTPTDAAAEIEMDRDVLGSLYLGAHRASTLAAANRLRTKDSQLLRRLDAAFASDVPVQTAFEF
notes: also called aminoglycoside acetyltransferase Eis; recombinant Eis protein
[1]
  stoichiometry N: 6
[2]
  stoichiometry N: 3
